The values below come from paper PMC12668182.

In data set [1] the test system is HaloTag-CSB full-length (nuclear extract, SMADNE). The experiment in a line: single-molecule (SMADNE, optical tweezers C-Trap). The conditions noted are these: EMSA: 20 mM HEPES-KOH pH 7.5, 50 mM KCl, 0.05% Triton X-100, 0.5 mM TCEP, 5% glycerol, 1 nM oligo, 4 C, C-Trap: 20 mM HEPES pH 7.5, 10% glycerol, 1 mM DTT.
The subject of data set [2] is HaloTag-CSB full-length (nuclear extract, SMADNE);HaloTag-SNM1A catalytic domain. The experiment in a line: single-molecule (optical tweezers C-Trap). Particulars: EMSA: 20 mM HEPES-KOH pH 7.5, 50 mM KCl, 0.05% Triton X-100, 0.5 mM TCEP, 5% glycerol, 1 nM oligo, 4 C, C-Trap: 20 mM HEPES pH 7.5, 10% glycerol, 1 mM DTT. (In EMSA bound probe runs differently from free probe, usually more slowly.)

In data set [3] the test system is HaloTag-SNM1A catalytic domain. The experiment in a line: single-molecule (optical tweezers C-Trap). The conditions noted are these: EMSA: 20 mM HEPES-KOH pH 7.5, 50 mM KCl, 0.05% Triton X-100, 0.5 mM TCEP, 5% glycerol, 1 nM oligo, 4 C, C-Trap: 20 mM HEPES pH 7.5, 10% glycerol, 1 mM DTT.
Data set [4] addresses HaloTag-CSB, full length, JaneliaFluor-labelled (human) (UniProt Q03468). Put plainly: single-molecule fluorescence on tethered DNA (SMADNE, LUMICKS C-Trap); oligomerisation state of HaloTag-CSB (photon counts) at the site-specific ICL repair intermediate, alone or colocalised with SNM1A; DNA present.
Data set [5] has the same target. Put plainly: single-molecule fluorescence on tethered DNA (SMADNE, LUMICKS C-Trap); oligomerisation state of HaloTag-CSB (photon counts) in events colocalised with SNM1A on lambda dsDNA; DNA present.
Data set [6] shares this target. Put plainly: single-molecule fluorescence on tethered DNA (SMADNE, LUMICKS C-Trap); two-colour HaloTag-CSB nuclear extracts (JF552 and JF635) on lambda dsDNA; colocalisation and photon counts; 20 mM HEPES pH 7.5, 10% glycerol, 1 mM DTT, 1 mM MgCl2; 30 C; DNA present.
For data set [7], the target named is full-length CSB (ERCC6), wild type, recombinant (human) (UniProt Q03468). The experiment in a line: SEC; purification of full-length CSB alone on Superdex S200; retention volume compared with calibration curves; 50 mM HEPES pH 8, 300 mM NaCl, 1 mM TCEP; monomer to dimer.
Setting [8] is: triazole click ICL (azide-C6-amino-dA x octadiynyl-dU), 5'P flap.

In general, Kd refers to the equilibrium constant for the complex coming apart. Read a high Kd as a looser complex. In the case of lambda DNA (undamaged), the Kd in data set [1] stood at 1.2 nM; in data set [2] it was 17.5 nM; in data set [3] it was 21.8 nM.
In data set [4], “HaloTag-CSB, full length, JaneliaFluor-labelled (from UniProt Q03468 1-1493) (natural protein)” returned a percent of CSB events at the ICL repair intermediate that were dimeric of 78% and a percent of SNM1A:CSB events on ICL repair intermediates with dimeric CSB of 90%. The same substance showed a percent of CSB:SNM1A colocalisation events on lambda DNA in which CSB was a dimer in data set [5] of 73%. Moreover, in data set [6], the percent of CSB binding events on lambda DNA that were dimeric turned out to be 35% and the percent of single colour tracks in which a dimeric CSB bound to DNA came out at 20%.
In the case of ICL flap repair intermediate (C-Trap), the Kd is 45 nM in data set [2] (setting [8]) and 355 nM in data set [3] (setting [8]).
As usually defined, the stoichiometry N is the number of molecules, sites or subunits per partner or assembly. With “full-length CSB (ERCC6), wild type, recombinant (from UniProt Q03468 1-1493) (natural protein)”, in data set [7], the stoichiometry N is 2.
